# Measured values as given in patent publication US20210230248A1, “Multivalent pharmacophores for high avidity and overexpressed-target specific binding and uses thereof” (priority 2020, published 2021).
# Entries after “also recorded” stand apart in the source; their conditions may differ. Where no end group is shown, it is not given here.
# Columns and labels:
# [1] = molecular target: T1, PD-L1 overexpressing SU-DHL-1 cells (Homo sapiens, UniProt Q9NZQ7); experiment: Competitive binding assay on PD-L1 overexpressing SU-DHL-1 cells; conditions: antibody at ~33.3 nM, assuming linear relationship
# T1 construct: endogenous in cells; host or cells: SU-DHL-1 cells
# T1 sequence (Q9NZQ7 19-290): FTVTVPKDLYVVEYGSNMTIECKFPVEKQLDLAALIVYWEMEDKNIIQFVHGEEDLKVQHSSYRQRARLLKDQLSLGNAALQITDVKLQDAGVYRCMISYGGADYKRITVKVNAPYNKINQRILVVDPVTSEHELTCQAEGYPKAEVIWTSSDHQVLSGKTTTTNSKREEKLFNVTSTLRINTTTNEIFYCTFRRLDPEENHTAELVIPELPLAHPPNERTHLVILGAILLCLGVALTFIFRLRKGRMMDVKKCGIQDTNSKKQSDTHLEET
# Method: PC3, a low PD-L1 expressing cell is used as a control.
# PE-conjugated mouse anti-human PD-L1 antibody (Clone MIN1, eBioscience) at the final concentration of 0.5 μg/100 μL (˜33.3 nM) was mixed with 4-arm PEG-2K PD-1ecto or 6-arm PEG-3.4K PD-1ecto titrated from 50 nM to 1 nM in Stain Buffer. SU-DHL-1 cells (0.5×10^6 cells) were resuspended in each titration of reagent in a final volume of 100 μL per well. After incubation for 3 h on ice with occasional mixing, the cells were washed 3 times. The amount of anti-PD-L1 antibody bound to the cells was quantified by the fluorescence intensity of PE using flow cytometry.
# [2] = molecular target: T2, uPAR overexpressing Hela cells (Homo sapiens, UniProt Q03405); experiment: Competitive binding assay on uPAR overexpressing Hela cells; conditions: ratio of IC50 values
# T2 construct: endogenous in cells; host or cells: Hela cells
# T2 sequence (Q03405 23-335): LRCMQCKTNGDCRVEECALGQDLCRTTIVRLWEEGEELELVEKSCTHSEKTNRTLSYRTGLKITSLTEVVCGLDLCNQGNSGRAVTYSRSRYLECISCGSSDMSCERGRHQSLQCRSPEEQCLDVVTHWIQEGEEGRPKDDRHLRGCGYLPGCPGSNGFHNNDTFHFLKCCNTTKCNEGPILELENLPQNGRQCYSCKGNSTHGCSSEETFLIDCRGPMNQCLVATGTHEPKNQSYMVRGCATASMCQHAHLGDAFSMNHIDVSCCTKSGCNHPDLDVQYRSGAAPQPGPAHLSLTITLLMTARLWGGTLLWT
# Text: This assay is to measure the binding avidity of multivalent PEG-GFD pharmacophores to uPAR overexpressing Hela cells in comparison to uPA. Hela cells express uPAR but not uPA (Rabbani et al., Neoplasia, 2010, 12(10); 778-88), and therefore competition from endogenous uPA can be excluded.
# Mouse anti-uPAR (Clone VIM5) is an uPAR blocking antibody (Sillaber et al., J Biol Chem, 1997, 272(12):7824-32). The potency of multivalent PEG-GFD pharmacophores and native uPA to compete against the antibody in binding to the overexpressed uPAR on the surface of Hela cells is measured and compared in this assay.
# Hela cells were detached from culture flasks by trypsin/EDTA, resuspended in complete culture medium in a 50 mL conical tube, and incubated for 1 h at 37° C. in 5% CO2 incubator to allow receptor recovery. PE-conjugated anti-uPAR antibody (Clone VIM5; Invitrogen) at the final concentration of 0.5 μg/100 μL (33.33 nM) was mixed with titrated concentrations of 4-arm PEG-GFD and 6-arm PEG-GFD, and recombinant human uPA (Biolegend) in Stain Buffer. The mixture was added into Hela cells (500,000 cells in 100 μL; final density). […] The fluorescent intensity of PE on Hela cells was quantified by flow cytometry and plotted against the titration of 4-arm PEG-GFD, 6-arm PEG-GFD and uPA. The binding avidity of multivalent PEG-GFD pharmacophores relative to native uPA can be calculated.
# H1299 and HT-1080 cells [3] = experiment: Chemotaxis assay (fibronectin coated transwell); format: cell-based, human; conditions: 10% FBS chemoattractant, 16 h
# Method: Chemotaxis assay was performed using BD BioCoat 24-well transwell with 8 μm pore size filter which is coated with fibronectin (Corning). For the study, H1299 and HT-1080 cells were detached from culture flasks with trypsin/EDTA, and then the trypsin was deactivated by adding the complete medium. The cells were washed with serum-free medium twice and resuspended at the final density of 50,000 cells in 500 μL DMEM medium supplemented with 0.5% BSA. The cells were treated with multivalent pharmacophores and uPAR blocking antibody for 1 h at 37° C. in 5% CO2 incubator. 650 μL of DMEM with 10% FBS was used as chemoattractant and added into the lower chamber. Serum-free DMEM medium was used as a negative control, and no drug treatment well was considered as 100% migration. After placing the upper chamber into the lower chamber, 500 μL cell suspensions were added to the upper chamber. 4-arm PEG-GFD, 6-arm PEG-GFD and uPAR blocking antibody, VIM5, with various concentrations were added in both upper and lower chambers. The transwell was incubated at 37° C. in 5% CO2 incubator for 16 h. […] The number of cells migrated past the filter was quantify by reading the solution in plate reader after transferring into a white 96-well plates.
# [4] = molecular target: T3, HT-1080 cells in which the overexpressed uPAR is occupied by endogenous uPA (Homo sapiens, UniProt Q03405); experiment: Displacement of endogenous uPA from uPAR on HT-1080 cells; format: binding; conditions: various concentrations; 0.5-4 h on ice
# T3 construct: endogenous in cells; host or cells: HT-1080 cells
# T3 sequence (Q03405 23-305 limits assumed): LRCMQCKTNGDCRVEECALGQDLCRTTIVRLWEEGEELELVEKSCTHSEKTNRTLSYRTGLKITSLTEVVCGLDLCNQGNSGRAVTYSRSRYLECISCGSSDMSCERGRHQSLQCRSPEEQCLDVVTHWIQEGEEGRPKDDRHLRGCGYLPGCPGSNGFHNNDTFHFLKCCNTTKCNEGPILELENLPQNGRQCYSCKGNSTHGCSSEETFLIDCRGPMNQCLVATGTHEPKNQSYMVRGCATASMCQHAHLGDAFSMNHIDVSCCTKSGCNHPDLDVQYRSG
# Method: Human fibrosarcoma cell HT-1080 overexpresses both uPA and uPAR and the uPAR is occupied by the endogenous uPA. […] As a control, the competitive potency of uPAR blocking antibody (Clone VIM5) was also tested.
# HT-1080 cells were plated in 96-well plate at 30,000 cells/well in 100 μL DMEM medium supplemented with 10% FBS. After overnight incubation, the culture medium was removed and 4-arm PEG-GFD, 6-arm PEG-GFD and mouse anti-uPAR antibody (Clone VIM5, Invitrogen) with various concentrations in Stain Buffer were added into each well. The cells were incubated on ice for 0.5, 1, 2, 3 and 4 h. Then, the cells were washed twice with cold PBS and fixed in 4% paraformaldehyde for 30 min. The plate was blocked with 3% MSD Blocking Buffer for 1 h and the cells were stained with mouse anti-human uPA catalytic domain antibody (Clone 204212; R&D Systems) to quantify the amount of endogenous uPA still associated with the cells. After 2 h incubation with the antibody, HRP-conjugated anti-mouse antibody was added for another hour of incubation. TMB was then added and followed by addition of stop solution. The plate was read at 450 nm absorbance to quantify the endogenous uPA.
# [5] = test system: H1299, SW480, HT-1080 and PC3 cells; experiment: Cell adhesion assay on vitronectin coated plate; format: cell-based, human; conditions: four uPAR overexpressing cell lines; 3 h; various concentrations
# Method: For adhesion of cancer cells to vitronectin, 96-well plate was coated overnight with vitronectin (Thermo Fisher Scientific) at 5 μg/mL in PBS at 4° C., 50 μL/well. The wells without coating were used as negative controls. The plate was then blocked with 3% MSD Blocking Buffer for 2 h at room temperature. Four uPAR overexpressing human cancer lines were used for the assay: non-small cell lung cancer line H1299, colorectal cancer line SW480, fibrosarcoma line HT-1080 and prostate cancer line PC3. The cells were detached from culture flasks by trypsin/EDTA, resuspended in complete culture medium in a 50 mL conical tube, and incubated for 1 h at 37° C. in 5% CO2 incubator to allow receptor recovery. Cells were then washed with serum-free medium and resuspended in DMEM medium with 0.5% BSA. 50,000 cells in 100 μL were plated into each well with various concentrations of 4-arm and 6-arm PEG-GFD pharmacophores, and uPAR blocking antibody, VIM5. The plates were incubated at 37° C. in 5% CO2 incubator for 3 h, and washed 4 times with PBS with 0.5% BSA. The number of adherent cells in each well was quantified by CellTiter-Glo (Promega).
# H1299 and HT-1080 cells [6] = experiment: Matrigel invasion assay; format: cell-based, human; conditions: 10 nM, 24 h
# Method: The migration of cells through Matrigel indicates the ability of the cells to digest the extracellular matrix during the process of migration. The Matrigel invasion assay is similar to the chemotaxis assay above except that the 8 μm pore size filter is coated with Matrigel. BD BioCoat Matrigel Invasion Chamber (Corning) was used for the assay with H1299 and HT-1080 cells. 4-arm PEG-GFD, 6-arm PEG-GFD and the blocking antibody VIM5 were used at the concentration of 10 nM. After 24 h treatment, the Matrigel along with the cells remaining on the upper surface of filter in the upper chamber was scraped off with a cotton swab. The migrated cells were measured with CellTiter-Glo as described above.
# Human recombinant PD-L2 = molecular target: T4, Human recombinant PD-L2 (Homo sapiens, UniProt Q9BQ51); experiment: Binding to PD-L2 coated MSD plate; conditions: test items at 5 nM; plate coated at 40 nM; FIG. 4B
# T4 construct: purchased Abcam
# T4 sequence (Q9BQ51 20-273): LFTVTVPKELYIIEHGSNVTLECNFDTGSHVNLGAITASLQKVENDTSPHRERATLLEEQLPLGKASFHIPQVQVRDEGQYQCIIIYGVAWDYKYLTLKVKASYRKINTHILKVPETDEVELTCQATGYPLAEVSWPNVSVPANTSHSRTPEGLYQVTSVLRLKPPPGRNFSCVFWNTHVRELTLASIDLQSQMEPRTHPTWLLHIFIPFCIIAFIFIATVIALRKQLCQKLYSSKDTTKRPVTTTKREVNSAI
# Method: Human recombinant PD-L1, PD-L2 and CD80 (Abcam) at the concentration of 40 nM were coated onto wells of 96-well MSD plate (small spot, 40 μL/well) overnight at 4° C., and then blocked with 3% MSD Blocking Buffer for 1 h. […] The plates were shaken for another 1 h at room temperature. After washing, SULFO-TAG anti-mouse IgG antibody was added into the plates. The plates were further incubated for 1 h and then washed and read after adding 1×MSD Read Buffer. SULFO-TAG anti-human IgG antibody was added into the plate of PD-L1 Fc chimera proteins. The wells without coating were used as background binding.
# CD47 = CD47 (Homo sapiens, UniProt Q08722); conditions: Ho et al. 2015; read-out: Kd CD47/SIRPα; cited from earlier work
# Sequence of CD47 (Q08722 19-323): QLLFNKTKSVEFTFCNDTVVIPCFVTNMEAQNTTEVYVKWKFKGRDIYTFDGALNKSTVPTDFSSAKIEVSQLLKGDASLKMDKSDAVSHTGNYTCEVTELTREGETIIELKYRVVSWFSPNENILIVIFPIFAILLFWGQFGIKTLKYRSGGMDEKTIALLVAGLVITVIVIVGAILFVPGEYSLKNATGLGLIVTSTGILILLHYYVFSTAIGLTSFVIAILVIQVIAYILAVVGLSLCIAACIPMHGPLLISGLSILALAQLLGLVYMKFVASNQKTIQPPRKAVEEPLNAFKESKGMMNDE
substance,measurement,setting,value
"4-arm PEG-2K PD-1ecto: PD-1 ectodomain (aa. 21-169) site-specifically C-terminally conjugated to 4-arm PEG-2K, tetravalent pharmacophore",fold more potent than the PD-L1 blocking antibody,[1],about 2.6 fold
6-arm PEG-GFD: growth factor-like domain of uPA conjugated to 6-arm PEG-3.4K (VPSNCDCLNGGTCVSNKYFSNIHWCNCPKKFGGQHCEIDKSKT; not fully specified (C-terminus); ends and bridges not checked; also: conjugated to 6-arm PEG-3.4K (site not given here)),fold increase in binding activity relative to native uPA,[2],~85 fold
same,migration of cells to the lower chamber (chemotaxis),H1299 and HT-1080 cells [3],significantly reduced migration
same,displacement of bound uPA from uPAR,[4],generally more potent than 4-arm PEG-GFD
same,inhibition of adhesion to vitronectin,[5],inhibited the adhesion of all four cell lines to vitronectin dose-dependently; also recorded: more potent than 4-arm PEG-GFD
same,Matrigel invasion,H1299 and HT-1080 cells [6],significantly inhibited
PD-1 Fc chimera: recombinant human PD-1 Fc chimera protein (R&D Systems) [reference compound],binding to PD-L2 coated plate,Human recombinant PD-L2,bound
"SIRPα: signal-regulatory protein alpha, binds CD47 through its N-terminal IgV-like domain",Kd,CD47,300 to 500 nM
